Assay results as given in the nanobody polyreactivity screen of Harvey et al. (2022).

Assay: yeast display, Sf9 membrane polyspecificity reagent, FACS + sequencing; frameworks hold sequencing errors
Outline: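 Nanobodies from a synthetic yeast display library (Saccharomyces cerevisiae BJ5465), induced 36–48 hours with galactose, were stained 1 hour at 4 °C with 10% biotinylated, detergent-solubilized Sf9 membrane reagent, enriched on streptavidin microbeads, then FACS-sorted. Anti-HA (expression) and streptavidin (reagent binding) fluorescence set low and high (top ~1%) gates. Polyreactivity labels come from the gate of origin. Genes were colony-PCR amplified, MiSeq 2 × 250 sequenced and filtered by CDR length.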

| Sequence | polyreactivity (PSR sort gate) |
| --- | --- |
| QVQLVESGGGLVQAGGSLRLSCAASGRTFANYAMGWYRQAPGKERELVAAISSGGNTYYADSVKGRFTISRDNAKNTVYLQMNSLKPEDTAVYYCNAPWYYRYQRNEYGYWGQGTQVTVSS | high polyreactivity |
| QVQLVESGGGLVQAGGSLRLSCAASGRTFAQNAMGWYRQAPGKERELVAAISSGGGRTYYADSVKGRFTISRDNAKNTVFLQMNSLKREDTAVYYCAAQGWLSYRYSPLKFGYWGQGTQVTVSS | high polyreactivity |
| QVQLVESGGGLVQAGGSLRLSCAASGRTFAQYTMGWYRQAPGKERELVAGIDWSGGNTYYADSVKGRFTISRDNAKNTVYLQMNSLKPEDTAVYYCAAVPAFYNAWGEDYEYWGQGTQVTVSS | low polyreactivity |
| QVQLVESGGGLVQAGGSLRLSCAASGRTFARNAMGWYRPAPGKERELVAAIPRSGGSTYYADSVKGRFTISRDNAKNTVYLQMNSLKPEDTADYYCAAVGTGSSLRYDYWGQGTQVTVSS | high polyreactivity |
| QVQLVESGGGLVQAGGSLRLSCAASGRTFARNAMGWYRQAAGKERELVAAITSIGTRTYYADAVKGRFTISRDNAKNTVYLQMNSLKPEDTAVYYCNKKRTADYDYWGQGTQVSVSS | low polyreactivity |
| QVQLVESGGGLVQAGGSLRLSCAASGRTFARYAMGWYRQAPGKERELVAAISRGGTTNYADSVKGRFTISRDNAKNTVYLQMNSLKPEDTAVYYCNRDFHLIHLSSARLDYWGQGTQVTVSS | low polyreactivity |
| QVQLVESGGGLVQAGGSLRLSCAASGRTFARYAMGWYRQAPGKERELVAAITRRGGSTYYADSVKGRFTISRDNAQNTVYLQMNSLKPEDTAVYYCAVPWYTRESGAYDYWGQGTQVTVSS | high polyreactivity |
| QVQLVESGGGLVQAGGSLRLSCAASGRTFARYAMGWYRQAPGKERELVARISSGGSTYYADSVKGRFTISRDNAKNTVYLQMNSLKPEDTAVYYCAASGWRYRYDYWGQGTQVTVSS | high polyreactivity |
| QVQLVESGGGLVQAGGSLRLSCAASGRTFARYGMGWYRQAPGKERELVATINWRSAGSTYYADSVKGRFTISRDNAKNTVYLLMNSLKPEDTAVYYCNVDSGRSYRVARYDYWGQGTQVTVSS | low polyreactivity |
| QVQLVESGGGLVQAGGSLRLSCAASGRTFARYTMGWYRQAPGKERELVASITRGGSTYYADSVKGRFTISRDNAKNTVYLQMNSLKPEDTAVYYCAARFPQHNYWAMDYWGQGTQVTVSS | high polyreactivity |
| QVQLVESGGGLVQAGGSLRLSCAASGRTFASNAMGWYRQAPGKERELVAAISVTGGRTYYADSVKGRFTISRDNAKNTVYLQMNRLKPEDTAVYYCAKDLTLFSGPFPEFGYWGQGTQVTVSS | low polyreactivity |
| QVQLVESGGGLVQAGGSLRLSCAASGRTFASYAMGWYRQAPGKERELVASIRYSGGSTHYADSVKGRFTISRDNAKNTVYLQMNSLKPEDTAVNYCNARPKFRTYNYWGQGTQVTVSS | high polyreactivity |
| QVQLVESGGGLVQAGGSLRLSCAASGRTFASYAMGWYRQAPGKERELVAVISRGGSNTNYADSVKGRFTISRDNAKNTVYLQLNSLKPEDTAVYYCADLAFKRYNPGGYDYWGQGTQVTVSS | high polyreactivity |
| QVQLVESGGGLVQAGGSLRLSCAASGRTFASYDMGWYRQEPGKERELVAAISVSGDSTYYADSVKGRFTISRDNAKNTFYLQMNSLKPEDTAVYYCNAEAQDYDHDYWGQSTQVTVSS | low polyreactivity |
| QVQLVESGGGLVQAGGSLRLSCAASGRTFASYGMGWYRQAPGKHRELVASITRRGGSTYYADSVKGRFTISRDNAKNTVYLQMNSLKPEDTAVYYCAATRVRSASYSIEYDYWGQGTQVTVSS | high polyreactivity |
| QVQLVESGGGLVQAGGSLRLSCAASGRTFAVYAMGWYRPAPGKERELVAGITSGGSTNYADSVKGRFTISRDNAKNTVYLQMNSLKPEDTAVYYCAAENVYAGFGFVSIGDYWGQGTQVTVSS | low polyreactivity |
| QVQLVESGGGLVQAGGSLRLSCAASGRTFAVYAMGWYRQAPGKERELDAAITYGGGRTYYADSVKGRFTISRDNAKNTVYLQMYSLKPEDTAVYYCAADYYGTDYDYWGQGTQVTVSS | low polyreactivity |
| QVQLVESGGGLVQAGGSLRLSCAASGRTFAVYSMGWYRQATGKERELVAVISSGGGTDYADSVKGRFRISRDNAKNTVYLQMNSLNPEDTAVYYCAADSVTFLATQPGDYWGQGTQVTVSS | low polyreactivity |
| QVQLVESGGGLVQAGGSLRLSCAASGRTFAVYTMGWYRQAPGKERELVARIRYSGGNTYYADSVKGRFTISRENAKNTVYLQMNSLKPEDTAVYYCAARSRYRIYASRNFDYWGQGTQVTVSS | high polyreactivity |
| QVQLVESGGGLVQAGGSLRLSCAASGRTFAWYAMGWYIEAPGKERELVAAISSGGSTYYADSVKGRFTISRDNAKNTVYLQMNSLKPEDTAVYYCATRYAIAGWVGYYYWGQCTQVTVSS | low polyreactivity |
| QVQLVESGGGLVQAGGSLRLSCAASGRTFAWYAMGWYRQAPGKERELVAAISNVGSTYYADSVKGRFTISRDNAKNTVYLHMNSLKPEHTAVYYCNADAVSTDGREYWGQGTQVTVSS | low polyreactivity |
| QVQLVESGGGLVQAGGSLRLSCAASGRTFAWYAMGWYRQAPGKERELVAAISWSSDTTYYADSVKGRFTISRDNAKNTVYLQMNSLKPEDTAVYYCAAVFQGYTRKYYYWGQGTQVTVSS | high polyreactivity |

| Sequence | polyreactivity (PSR sort gate) |
| --- | --- |
| QVQLVESGGGLVQAGGSLRLSCAASGRTFAWYTMGWYRQAPGKERELVAAISGSGGSTYYADSVKGRFTISRDNAKNTVYLQMNSLKPEDTAVYYCARRVDSYYGHTRYYYWGQGTQVTVSS | high polyreactivity |
| QVQLVESGGGLVQAGGSLRLSCAASGRTFAWYTMGWYRQAPGKERELVAAISGSGGSTYYADSVKGRFTISRDNAKNTVYLQRKSLKPEDTAVYYCARRVHSYYGHTRYYYWGQGTQVTVSS | high polyreactivity |
| QVQLVESGGGLVQAGGSLRLSCAASGRTFAWYTMGWYRQAPGKESELVAAISGSGGSTYYADSVKGRFTISRDNANNTVYLQMNSLKPDDTAVYYCARRVDSYYGHTRYYYWGQGTQVTVSS | high polyreactivity |
| QVQLVESGGGLVQAGGSLRLSCAASGRTFAYNTMGWYRQAPGKERELVAAITSGGNTYYADSVKGRFTISRDNAKNTVYLQMNSLKPEDTAVYYCARYFTARLEGGYWGQGTQVTVSS | high polyreactivity |
| QVQLVESGGGLVQAGGSLRLSCAASGRTFAYNTMGWYRQAPGKERELVARINSGTSTYYADSVKGRFTISRDNAKNTVYLEMNSLKPEDTAVYYCAARGSDYIRWYVGGRYGYWGQGSQVTVSS | low polyreactivity |
| QVQLVESGGGLVQAGGSLRLSCAASGRTFAYYAMGWYRQAPGKERELVAAISGNGGRTYYADSVKGRFTISRDNAKNTVYLQMNSLKPEDTAVYYCNAAVGYYSYSYYTKVGVDYWGQGSQVTVSS | high polyreactivity |
| QVQLVESGGGLVQAGGSLRLSCAASGRTFAYYAMGWYRQAPGKERELVAAITRGGSTYYADSVKGRFTISRDNAKNTVYLQMNSLKPEDTAVYYCATLYTRYDSYLVKGKYGYWGQGTQVIVSS | high polyreactivity |
| QVQLVESGGGLVQAGGSLRLSCAASGRTFCGYTMGWYRQAPGKERELVAAITKRGGSTYYADSVKGRFTISRDNAKNTVYLQMNSLKPEDTAVYYCAKTKTAGTIKYDYWGQGTQVTVSS | high polyreactivity |
| QVQLVESGGGLVQAGGSLRLSCAASGRTFDAYAMGWYRQAPGKERELVATITSGGGTYYADSVKGRFTISRDNEKNTVYLQMNSLKPEDYAVYYCNKRYVVSRKYDYWGQGTQVTVSS | low polyreactivity |
| QVQLVESGGGLVQAGGSLRLSCAASGRTFDDNAMGWYRQAPGKERELVASISSGTSTNYADSVKGRFTISRDNAKNTVYVQMNCLKPEDTAVYYCNAYGPIWYTAVLGVGRYYGWTDYWGQGTQVTVSS | low polyreactivity |
| QVQLVESGGGLVQAGGSLRLSCAASGRTFDDYAKGWYRQAPGKETEFVAAITRSGGGTHYADSVKGRFTISRDNAKNTVYLQMNSLKPEDTAVYYCAARAHGTYVRRRYDYWGQGTQVTVSS | high polyreactivity |
| QVQLVESGGGLVQAGGSLRLSCAASGRTFDFYAMGWYRQAPGKERELVASIDWDGGSTYYADSVKGRFTISRDNAKNTVYLQMNSLKPEDTAVYYCAKDGQKFTSSLYDYWGQGTQVTVSS | low polyreactivity |
| QVQLVESGGGLVQAGGSLRLSCAASGRTFDFYAMGWYRQAPGKERELVASNTFSTGSTTYADSVKGRFTISRDNAKITVYLQMNILKPEDTAVYYCAADGDCWWWSYVDRYDYWGQGTQVTVSS | low polyreactivity |
| QVQLVESGGGLVQAGGSLRLSCAASGRTFDGNTMGWYRQAPGKERELVAAITKRGGSTYYADSVKGRFTFSRDNAKNTVYLQMNSLKPEDTAVYYCAKGQSYSTRLSPYYYWGQGTQVTVSS | high polyreactivity |
| QVQLVESGGGLVQAGGSLRLSCAASGRTFDGNVMGWNRQAPGKERELVAAITASGGRTYYADSVKGRFTISRDNANNTVYIEMNSLNPEDTAVYYCAARIYRVYYVHFAPYYYWGQGTQVTVSS | high polyreactivity |
| QVQLVESGGGLVQAGGSLRLSCAASGRTFDGYAMGWYRQAPGKERELVAAIDGGGSTNYADSVKGRFTISRDNAKNTVYLQMNSLKPEDTAVYYCAADRGSGPGYDYWGQGTQVTVSS | low polyreactivity |
| QVQLVESGGGLVQAGGSLRLSCAASGRTFDGYAMGWYRQAPGKERELVAAIDYDGVSTYYADSVKGRFTISRDNAKNTVYLEMNSLKPEDTAVYYCAVDATDDWWLDYWGQGTQVTVSS | low polyreactivity |
| QVQLVESGGGLVQAGGSLRLSCAASGRTFDHNAMGWYRQAPGKERELVAAITWSGGITDYADSVKRPFTISRDNAKNTVYLQMNSLKPEDTAVWGQGTQVTVSS | low polyreactivity |
| QVQLVESGGGLVQAGGSLRLSCAASGRTFDHNTMGWYRQAPGTERELVAAISWSGGTTYYADSVKGRFTISRDNAKNTGYLQMNSLKPEDTAVYDCAADRSPGSYGYQYDYWGQGTQVTVSS | low polyreactivity |
| QVQLVESGGGLVQAGGSLRLSCAASGRTFDKYAMGCYRPAPGTQRELVAAINSSGGSTYYSDSVKGRFTISRDNEKNTVYLQMNSLKPEDTAFYYCAALGIGSYRRYSCYDYWGQGPQVTVSS | low polyreactivity |
| QVQLVESGGGLVQAGGSLRLSCAASGRTFDKYAMGWYRQAPGKERELVAAISGSGGRTYYADSVKGRFTISRDNETNTVYLQMNSLKPEDTAVYYCAADTRSYTYYYWGQGTQVTVSS | high polyreactivity |
